Data on six molecules can be found in patent US20220073565A1 (University of Washington, published 2022).

The target in assay [1] is T1, Bcl2 (UniProt P10415 1-207, limits assumed, biotinylated).
T1 construct: Loaded on streptavidin biosensors; also called biotinylated Bcl2
The experiment in a line: bio-layer interferometry (Octet), Bcl2 immobilised, switch with nine residue toehold.

Assay [2] has as its target T1, Bcl2. Nature of the assay: bio-layer interferometry, Bcl2 immobilised, 250 nM BimLOCKR with and without key. The method, then:
The range of key concentrations over which BimLOCKR is activated can be controlled by tuning KCK by varying the length of the key since the interaction energy is roughly proportional to the total surface area of interacting residues. […] Truncating an additional five residues completely negates key activation, indicating the equilibria are very sensitive to small changes in free energy as expected from our model (FIG. 2d). […] Bio-layer interferometry experiments were performed with target immobilized assayed against the switch with or without key in solution, as well as with key immobilized and assayed against the switch alone or with target in solution. […] This fit has an RMSE (root-mean-square-error) of 0.072 nm to the observed BLI data.
BLI measurements were made on an Octet® RED96 System (ForteBio) with streptavidin (SA) coated biosensors and all analysis was performed within ForteBio Data Analysis Software version 9.0.0.10. Assays were performed with protein diluted into HBS-EP+ Buffer from GE (10 mM HEPES, 150 mM NaCl, 3 mM EDTA, 0.05% v/v Surfactant P20, 0.5% non-fat dry milk, pH7.4 at room temperature). Biotinylated Bcl2 was loaded onto the SA tips to a threshold of 0.5 nm programmed into the machine's protocol.

The next assay has as its target T2, BclB (UniProt Q9HD36 11-178, limits assumed).
T2 construct: also called Bcl2 homolog BclB
T2 sequence (looked up): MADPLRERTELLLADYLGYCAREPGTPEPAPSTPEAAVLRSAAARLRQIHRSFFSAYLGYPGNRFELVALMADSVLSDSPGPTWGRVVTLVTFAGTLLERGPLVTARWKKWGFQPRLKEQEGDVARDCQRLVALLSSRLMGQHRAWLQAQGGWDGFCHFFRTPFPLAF
Nature of the assay: global fit of the thermodynamic model to bio-layer interferometry data (target or key immobilised).

The target in assay [3] is T1, Bcl2. Described as above.
For the next assay, the target named is T3, YFP-degronSwitcha.
T3 sequence: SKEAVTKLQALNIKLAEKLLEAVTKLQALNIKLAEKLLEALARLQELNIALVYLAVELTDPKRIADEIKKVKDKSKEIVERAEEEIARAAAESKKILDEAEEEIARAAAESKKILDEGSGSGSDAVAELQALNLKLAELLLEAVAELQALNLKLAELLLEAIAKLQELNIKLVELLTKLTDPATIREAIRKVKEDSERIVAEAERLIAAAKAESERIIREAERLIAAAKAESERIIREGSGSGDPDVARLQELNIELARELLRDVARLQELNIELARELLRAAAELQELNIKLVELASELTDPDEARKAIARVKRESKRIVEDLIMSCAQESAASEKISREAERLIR
The experiment in a line: cell-based or functional assay.

Assay [4] addresses dCas9-VP64-RFP-degronSwitcha. The experiment in a line: cell-based or functional assay.
The target of another assay is SynTF-RFP-degronSwitcha. The experiment in a line: cell-based or functional assay.
A further assay addresses T4, mSin3A-PAH2 domain (UniProt Q60520 300-383, biotin).
T4 construct: domain: PAH2; 0.1 µg immobilised on streptavidin biosensor tips; also called Biotin-mSin3A-PAH2; PAH2 domain of the mSin3A transcriptional repressor
T4 sequence (looked up): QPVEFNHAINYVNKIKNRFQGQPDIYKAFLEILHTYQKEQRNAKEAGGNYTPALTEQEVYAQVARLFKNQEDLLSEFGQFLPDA
The experiment in a line: bio-layer interferometry, Biotin-mSin3A-PAH2 on streptavidin tips. From the text: FIG. 12a-d: Designed Mad1-SID LOCKR switches for key-dependent transcriptional repression. FIG. 12a. Crystal structure of the interaction between Mad1-SID domain (white) and the PAH2 domain of the mSin3A transcriptional repressor (black) (PDB ID: 1E91). Caging of the Mad1-SID domain should enable key-dependent recruitment of the transcriptional repressor mSin3A enabling precise epigenetic regulation. FIG. 12b. Designed Mad1-LOCKR switches, with Cage component encoding the Mad1-SID sequence at different positions (dark gray). FIG. 12c. SDS-PAGE gel showing successfully purified 1fix302Mad1 (1) , 1fix_309_Mad1 (2) and MBP_Mad1 (3). FIG. 12d. Biolayer interferometry analysis of key-activated binding of the Mad1-LOCKR switches to the purified rnSin3A-PAH2 domain. MBP-Mad1 is a positive control for mSin3a-PAH2 binding. […] Kinetic assays were performed by immobilizing 0.1μg of Biotin-mSin3A-PAH2 protein on Streptavidin biosensor tips (ForteBio). Protein cages were tested at 50 nM in presence or absence of 500 nM Keyₐ.

No end group written: not given here. Bounds are passed on as bounds.

T1 sequence (P10415 1-207 limits assumed): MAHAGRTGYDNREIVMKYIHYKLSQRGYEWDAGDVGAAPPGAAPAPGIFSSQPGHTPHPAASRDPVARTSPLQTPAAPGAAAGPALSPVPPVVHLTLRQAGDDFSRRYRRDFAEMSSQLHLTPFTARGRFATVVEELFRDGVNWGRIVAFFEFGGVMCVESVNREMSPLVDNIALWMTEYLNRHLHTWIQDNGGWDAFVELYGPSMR

B1: BimLOCKRb (nine residue toehold on the latch) (designed binder)
chain: MGSSHHHHHHSSGLVPRGSHMSHAAVIKLSDLNIRLLDKLLQAVIKLTELNAELNRKLIEALQRLFDLNVALVHLAAELTDPKRIADEIKKVKDKSKEIVERAEEEIARAAAESKKILDEAEEEIARAAAESKKILDEGSGSGSDAVAELQALNLKLAELLLEAVAELQALNLKLAELLLEAIAKLQELNIKLVELLTKLTDPATIREAIRKVKEDSERIVAEAERLIAAAKAESERIIREAERLIAAAKAESERIIREGSGSNDPQVAQNQETFIELARDALRLVAENQEAFIEVARLTLRAAALAQEVAIKAVEAASEGGSGSGNEIWIAQELRRIGDEFNAYYAEHKEIHDKLRKKNKKAREDLKKKADE
notes: Entry is printed with full latch and optional His tag; tested with a nine residue toehold (latch truncated by nine residues)
B1: the “fold activation of binding by the cognate key (with key against without key)” value in the assay with Bcl2 [1] stood at 22 fold.

B2: BimLOCKRc (nine residue toehold on the latch) (designed binder)
chain: MGSSHHHHHHSSGLVPRGSHMSLEAVLKLAELNLKLSDKLAEAVQKLAALLNKLLEKLSEALQRLFELNVALVTLAIELTDPKRIADEIKKVKDKSKEIVERAEEEIARAAAESKKILDEAEEEIARAAAESKKILDEGSGSGSDAVAELQALNLKLAELLLEAVAELQALNLKLAELLLEAIAKLQELNIKLVELLTKLTDPATIREAIRKVKEDSERIVAEAERLIAAAKAESERIIREAERLIAAAKAESERIIREGSGSNDPLVARLQELLIEHARELLRLVATSQEIFIELARAFLANAAQLQEAAIKAVEAASENGSGEIWIAQELRRIGDEFNAYYAQNQKLLKDHKRAQEKLNRELEELKKKHKK
notes: as for B1
Consider B2, for which the “fold activation of binding by the cognate key (with key against without key)” value with Bcl2 [1] is 8 fold.

B3: BimLOCKR (18-residue extension with a 9 residue toehold) (designed binder)
chain: MGSSHHHHHHSSGLVPRGSHMSKEAVTKLQALNIKLAEKLLEAVTKLQALNIKLAEKLLEALARLQELNIALVYLAVELTDPKRIADEIKKVKDKSKEIVERAEEEIARAAAESKKILDEAEEEIARAAAESKKILDEGSGSGSDAVAELQALNLKLAELLLEAVAELQALNLKLAELLLEAIAKLQELNIKLVELLTKLTDPATIREAIRKVKEDSERIVAEAERLIAAAKAESERIIREAERLIAAAKAESERIIREGSGSGDPDVARLQELNIELARELLRDVARLQELNIELARELLRAAAELQELNIKLVELASELTDEIWIAQELRRIGDEFNAYYADAERLIREAAAASEKISREAERLIREAA
notes: the tested form has the latch truncated by nine residues at the C-terminus (toehold); also called BimLOCKRa
For the molecule B3, in the assay with Bcl2 [2], the “fold activation of binding by the key (with key against without key)” value is around 40 fold. In addition, the values for the Kd with BclB and with Bcl2 [3] were 32 nM and 28 nM, respectively.

B4: Keya-BFP (designed binder, not shown: large carriers)
chain: EARKAIARVKRESKRIVEDAERLIREAAAASEKISREAERLIREAAAASEKISRE
modifications: also: C-terminal fusion to BFP (mTagBFP2), linker not given here
B4: the reduction of YFP fluorescence (flow cytometry, S. cerevisiae) with YFP-degronSwitcha is below 73%. In assay [4], this molecule yielded a reduction of RFP fluorescence upon induction of Key at 31.25 nM E2 of 78% and a reduction of pTet7x-YFP reporter fluorescence upon induction of Key at 31.25 nM E2 of 41%.

B5: Keya-BFP-NLS (designed binder, not shown: large carriers)
chain: B4 chain
In the assay with SynTF-RFP-degronSwitcha, B5 displayed a reduction of RFP fluorescence at 31.25 nM E2, maximal Key induction of 61% and a reduction of pSynTF-YFP reporter fluorescence at 31.25 nM E2, maximal Key induction of 82%.

B6: 1fix_302_Mad1 (designed binder)
chain: MGSHHHHHHGSGSENLYFQGSKEAAKKLQDLNIELARKLLEASTKLQRLNIRLAEALLEAIARLQELNLELVYLAVELTDPKRIRDEIKEVKDKSKEIIRRAEKEIDDAAKESKKILEEARKAIRDAAEESRKILEEGSGSGSDALDELQKLNLELAKLLLKAIAETQDLNLRAAKAFLEAAAKLQELNIRAVELLVKLTDPATIRRALEHAKRRSKEIIDEAERAIRAAKRESERIIEEARRLIEKAKEESERIIREGSGSGDPDIKKLQDLNIELARELLRAHAQLQRLNLELLRELLRALAQLQELNLDLLRLASELTNIQMLLEAADYLERESKRIVEDAERLIREAAAASEKISREAERSIREAAAASEKISRE
notes: Optional His-TEV tag printed in parentheses
As to B6, in the assay with mSin3A-PAH2 domain, the binding result is listed as “no binding”.
